Laboratory results reported in patent US20200181261A1 (Bayer, published 2020).
Numbering of substitutions follows the chain as printed. Where “and” joins values, the source holds several entries; their conditions need not be identical. Equal values may be shown once.

Experiments:
[1] = molecular target: T1, Macaca fascicularis CEACAM6-Domain 1, obtained by Factor Xa cleavage of TPP-2452 (Macaca fascicularis); assay: SPR, antibody captured, antigen as analyte
T1 construct: also called APP-325; cynoC6-D1
T1 chain: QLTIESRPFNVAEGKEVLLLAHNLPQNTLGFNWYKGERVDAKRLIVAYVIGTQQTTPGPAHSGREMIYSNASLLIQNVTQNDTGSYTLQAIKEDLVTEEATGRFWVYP

[2] = molecular target: T2, human CEACAM6, full-length, on cells (human, UniProt P40199 35-320); assay: cell-based or functional assay
T2 sequence: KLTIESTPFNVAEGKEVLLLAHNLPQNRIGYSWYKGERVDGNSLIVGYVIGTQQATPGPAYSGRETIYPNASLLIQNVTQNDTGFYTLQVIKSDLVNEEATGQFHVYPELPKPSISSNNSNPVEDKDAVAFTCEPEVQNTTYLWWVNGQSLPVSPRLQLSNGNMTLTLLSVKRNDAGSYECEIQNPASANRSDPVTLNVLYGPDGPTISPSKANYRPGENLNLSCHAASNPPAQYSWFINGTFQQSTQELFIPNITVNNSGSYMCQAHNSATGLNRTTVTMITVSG

[3] = molecular target: T2, human CEACAM6, full-length, on cells; assay: FACS, KS cells (endogenous CEACAM6)
[4] = molecular target: T2, human CEACAM6, full-length, on cells; assay: FACS, T84 cells (endogenous CEACAM6)
Experimental: (§1) For FACS experiments HeLa wild type cells were cultured in RPMI-1640, 10% FCS, while CEACAM-receptor transfected HeLa cells received in addition 0.5% Gentamycin (stock 10 mg/ml, Fa. PAA) and 200 μg/ml Hygromycin B (stock 50 mg/ml, Invitrogen). Cells were washed 3 times with PBS w/o Ca²⁺/Mg²⁺ and were detached from the culture plate non-enzymatically with EDTA dissociation buffer (Gibco). Cells were washed in cold FACS buffer (PBS w/o Ca²⁺/Mg²⁺ and heat-inactivated 3% FCS) and were counted using a countess machine (Invitrogen). 10⁵ cells per well were plated and incubated with the respective primary antibody (5 μg/ml) for 1 h at 4° C. on a plate shaker. […] After 2 times washing the cells were resuspended in 100 μl FACS buffer and were analysed on a FACS Canto II machine (Beckton Dickinson) or a FACS Array (Beckton Dickinson).
(§2) For EC₅₀ analysis, the primary antibodies were used at increasing concentrations in a range from 0.1 nM to 100 nM. Half maximal binding values (EC₅₀) were determined by plotting the median fluorescence intensity signal against the concentration (logarithmic scale). Curve fitting of data was performed using the Graph Pad prism analysis software.
(§3) Anti-CEACAM6 antibodies were also tested for their binding to different cancer cell lines that endogenously express CEACAM6 by FACS analysis. […]

[5] = molecular target: T2, human CEACAM6, full-length, on cells; assay: FACS, SNU-C1 cells (endogenous CEACAM6)
Experimental: as §1, §2, §3

[6] = molecular target: T2, human CEACAM6, full-length, on cells; assay: FACS, NCI-H1993 cells (endogenous CEACAM6)
Experimental: as §1, §2, §3

[7] = molecular target: T2, human CEACAM6, full-length, on cells; assay: FACS, PaTu-8902 cells (endogenous CEACAM6)
Experimental: as §1, §2, §3

[8] = molecular target: T3, human CEACAM1, extracellular (mature form), R&D Systems 2244-CM (human, UniProt P13688 35-428); assay: ELISA, antibody captured, biotinylated antigen titrated; binding ELISA, biotinylated CEACAM1 titrated up to 2000 ng/ml; ambiguous fit
T3 construct: used biotinylated in some assays; also called TPP-1437; hC1
T3 sequence: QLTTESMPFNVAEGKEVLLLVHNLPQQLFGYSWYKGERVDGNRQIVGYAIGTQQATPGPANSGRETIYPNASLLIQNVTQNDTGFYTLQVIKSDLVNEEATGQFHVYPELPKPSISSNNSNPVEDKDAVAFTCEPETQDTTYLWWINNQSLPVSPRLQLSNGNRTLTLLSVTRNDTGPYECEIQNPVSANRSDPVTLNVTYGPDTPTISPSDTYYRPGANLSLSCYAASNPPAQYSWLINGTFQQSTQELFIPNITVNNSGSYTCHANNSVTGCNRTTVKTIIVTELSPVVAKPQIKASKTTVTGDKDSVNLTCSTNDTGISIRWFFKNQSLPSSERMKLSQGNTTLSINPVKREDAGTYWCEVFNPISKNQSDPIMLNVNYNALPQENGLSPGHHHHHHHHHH

B1: TPP-2971 (antibody, mouse IgG1, V domains shown)
VH: QVTLKESGPGILQPSQTLSLTCSFSGFSLSTYGIGVGWIRQPSGKDLEWLAHIWWNDNKYYNTALKSRLTISKDTSNNQVFLKIASVDTADTATYYCARISLPYFDYWGQGTTLTVSS
VL: DIVMTQSQKFMSTSVGDRVSITCKASQNVGTAVAWYQQKPGQSPKLLIYSASNRYTGVPDRFTGSGSGTDFTLTISNMQSEDLADYFCQQYSSYPLTFGAGTKLELK
notes: murine hybridoma antibody, mouse IgG1; also called 792.15H12C9
- Kd [1]: 30 nM

B2: TPP-3187 (antibody, mouse IgG1, V domains shown)
VH: B1 VH with S30T, D46G
VL: B1 VL with S92N, S93N
notes: murine hybridoma antibody, mouse IgG1; also called 792.15C4F4
- Kd [1]: 42 nM

B3: TPP-3310 (antibody, human IgG2, kappa)
heavy: QVTLRESGPALVKPTQTLTLTCTFSGFSLSTYGIGVGWIRQPPGKALEWLAHIWWNDNKYYSTSLKTRLTISKDTSKNQVVLTMTNMDPVDTATYYCARISLPYFDYWGQGTTLTVSSASTKGPSVFPLAPCSRSTSESTAALGCLVKDYFPEPVTVSWNSGALTSGVHTFPAVLQSSGLYSLSSVVTVPSSNFGTQTYTCNVDHKPSNTKVDKTVERKCCVECPPCPAPPVAGPSVFLFPPKPKDTLMISRTPEVTCVVVDVSHEDPEVQFNWYVDGVEVHNAKTKPREEQFNSTFRVVSVLTVVHQDWLNGKEYKCKVSNKGLPAPIEKTISKTKGQPREPQVYTLPPSREEMTKNQVSLTCLVKGFYPSDIAVEWESNGQPENNYKTTPPMLDSDGSFFLYSKLTVDKSRWQQGNVFSCSVMHEALHNHYTQKSLSLSPG
light: DIQLTQSPSFLSASVGDRVTITCKASQNVGTAVAWYQQKPGKAPKLLIYSASNRYTGVPSRFSGSGSGTEFTLTISSLQPEDFATYYCQQYSSYPLTFGGGTKVEIKRTVAAPSVFIFPPSDEQLKSGTASVVCLLNNFYPREAKVQWKVDNALQSGNSQESVTEQDSKDSTYSLSSTLTLSKADYEKHKVYACEVTHQGLSSPVTKSFNRGEC
notes: humanized from TPP-2971, human IgG2; also called TPP-2971HU1-hIgG2Kappa
- IC50 of the dose dependent effect on TIL mediated killing of HCC2935 cells (xCELLigence) [2]: 0.62 µg/mL and 0.21 µg/mL
- EC50 [3]: 0.8 nM
- EC50 [4]: 0.3 nM
- EC50 [5]: 0.5 nM
- EC50 [6]: 0.8 to 1.6 nM
- EC50 [7]: 0.15 nM

B4: TPP-3705 (antibody, human IgG2, kappa, V domains shown)
VH: EVQLVESGGGLVQPGGSLRLSCAASGFTFSLYQMHWVRQAPGKGLEWVSWISFSGGNTGYADSVKGRFTISRDNSKNTLYLQMNSLRAEDTAVYYCARATGYSSPWYLDPWGQGTLVTVSS
VL: DIQMTQSPSSLSASVGDRVTITCQASHEIDNYLNWYQQKPGKAPKLLIYDAYWLKTGVPSRFSGSGSGTDFTLTISSLQPEDIATYYCQGYDDLSVTFGGGTKVDIKR
notes: also called 090E-M007-A09-Mat1-hIgG2-hIgG2Kappa
- EC50 [8]: > 2 µg/mL

B5: TPP-3707 (antibody, human IgG2, kappa, V domains shown)
VH: B4 VH
VL: B4 VL with L54S
notes: also called 090E-M007-A09-Mat2-hIgG2-hIgG2Kappa
- EC50 [8]: > 2 µg/mL
